T1: RecQL4_N54 (human (Homo sapiens), UniProt O94761 1-54)
T1 sequence: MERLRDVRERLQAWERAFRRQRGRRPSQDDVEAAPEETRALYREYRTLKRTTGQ


Columns and labels:
[1] = molecular target: GST-TopBP1 (a.a. 1233–1522) (human, UniProt Q92547 1233-1522); experiment: SPR
RecQL4_N54 = molecular target: T1, RecQL4_N54; experiment: EMSA

GST-TopBP1 (a.a. 1233–1522), sequence (Q92547 1233-1522): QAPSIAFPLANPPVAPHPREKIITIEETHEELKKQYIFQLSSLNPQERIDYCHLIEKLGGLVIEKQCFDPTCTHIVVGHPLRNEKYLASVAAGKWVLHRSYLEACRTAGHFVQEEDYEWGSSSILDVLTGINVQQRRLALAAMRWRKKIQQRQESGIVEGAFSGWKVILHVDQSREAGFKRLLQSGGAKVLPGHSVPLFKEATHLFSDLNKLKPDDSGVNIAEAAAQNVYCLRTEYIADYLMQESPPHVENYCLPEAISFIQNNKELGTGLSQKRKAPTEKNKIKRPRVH

| Kd [1] [µM] | Binder | binding result (RecQL4_N54) |
| --- | --- | --- |
| ~70 | RecQL4_N54 (domain or fragment, human) GSMERLRDVRERLQAWERAFRRQRGRRPSQDDVEAAPEETRALYREYRTLKRTTGQ |  |
|  | S4-M3 Y (mixed) DNA 1: ATCCTCTCTAGAGTCAAGGTCGGAGTTAGAGTAG DNA 2: CTACTCTAACTCCGACCGCTTGCATGCCTGCAGG | binds |
|  | M2-M4 Y (mixed) DNA 1: GCTTGCATGCCTGCAGGCCAGCCTCAATCTCATC DNA 2: ATCCTCTCTAGAGTCGACCTGCAGGCATGCAAGC | binds |

From PMC3458545 (Nucleic Acids Research, 2012)
